The record followed here is patent publication US20160369010A1 (AstraZeneca / MedImmune, published 2016).

Where a chain is given by its changes, count along the chain named.

Experiment [1] concerns the target T1, Recombinant human Avi_PCSK9_Flag_His (human, UniProt Q8NBP7 31-692, biotinylated in the HTRF and LDL-R competition assays).
T1 construct: In-house protein; also called human PCSK9; huPCSK9
Briefly: HTRF epitope competition: unlabelled compound titrated against a DyLight 650-labelled anti-PCSK9 antibody for biotinylated human PCSK9; % specific binding [panel C]. (Time-resolved FRET reads energy transfer from a long-lived donor to a nearby acceptor.)
Description: (§1) PCSK9 activity of each peptide-antibody fusions was assessed using Homogenous Time Resolved Fluorescence (HTRF) epitope competition assays.
(§2) For the assay all samples and reagents were prepared in assay buffer containing 1X Phosphate Buffered Saline, 0.1% BSA (Sigma A9576) and 0.4M Potassium Fluoride. Test samples of peptide-antibody fusions or control antibodies were prepared in 384 well polypropylene plates by 3-fold serial dilutions. […] Delta F% was then calculated using the following equation.

The target in experiment [2] is recombinant human B7-H1 (in house) (human, UniProt Q9NZQ7 19-238, limits assumed). Briefly: binding ELISA on coated human B7-H1 (5 ug/mL), compound at 10 ug/mL, detection with cryptate labelled Fc specific anti human IgG; positive control. Background: ELISA stands for enzyme-linked immunosorbent assay.
Sequence of recombinant human B7-H1 (in house) (Q9NZQ7 19-238 limits assumed): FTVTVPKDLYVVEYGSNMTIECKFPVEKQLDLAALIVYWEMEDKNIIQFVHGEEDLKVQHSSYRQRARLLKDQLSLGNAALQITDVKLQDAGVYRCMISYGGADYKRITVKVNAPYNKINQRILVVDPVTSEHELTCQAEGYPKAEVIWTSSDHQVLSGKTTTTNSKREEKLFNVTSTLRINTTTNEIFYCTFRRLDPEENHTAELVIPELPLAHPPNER
Description: Binding ELISA was performed by coating human B7-H1 (in house) at 5 ug/mL in 1× Phosphate Buffered Saline. After plate blocking with 1×Phosphate Buffered Saline, 3% skimmed milk, compounds were added at 10 ug/mL in PBS and incubated for 2 h at room temperature before washing.
The target in experiment [3] is T1, Recombinant human Avi_PCSK9_Flag_His. In words: SPR (Biacore 2000). (In general: SPR reads the build-up and loss of mass on a sensor chip optically.)
The next experiment has as its target human GLP-1 receptor (human, UniProt P43220 24-463). Briefly: cell-based or functional assay.
Experiment [4] concerns the target T1, Recombinant human Avi_PCSK9_Flag_His. In words: HTRF epitope competition: unlabelled compound titrated against a DyLight 650-labelled anti-PCSK9 antibody for biotinylated human PCSK9; % specific binding [panel B].
Description: as §1, §2
For experiment [5], the target named is T2, Flag/His tagged human CD86 (in-house) (human, UniProt P42081 24-247, limits assumed).
T2 sequence (looked up): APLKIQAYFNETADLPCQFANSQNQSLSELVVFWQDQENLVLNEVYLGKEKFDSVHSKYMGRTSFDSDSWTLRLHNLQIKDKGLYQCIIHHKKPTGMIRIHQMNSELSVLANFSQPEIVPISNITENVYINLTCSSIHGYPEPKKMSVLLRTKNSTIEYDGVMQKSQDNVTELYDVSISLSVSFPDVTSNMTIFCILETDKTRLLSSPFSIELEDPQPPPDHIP
Briefly: DELFIA TRF, antigen coated at 10 µg/mL.

Experiment [6] deals with T1, Recombinant human Avi_PCSK9_Flag_His. Briefly: binding ELISA on coated human PCSK9 (10 ug/mL), single concentration, detection with cryptate labelled Fc specific anti human IgG.
Experiment [7] shares this target. Briefly: HTRF epitope competition: unlabelled compound titrated against a DyLight 650-labelled anti-PCSK9 antibody for biotinylated human PCSK9; % specific binding [panel B]. This is another data set of the same source.
Description: as §1, §2

Sequence of human GLP-1 receptor (P43220 24-463): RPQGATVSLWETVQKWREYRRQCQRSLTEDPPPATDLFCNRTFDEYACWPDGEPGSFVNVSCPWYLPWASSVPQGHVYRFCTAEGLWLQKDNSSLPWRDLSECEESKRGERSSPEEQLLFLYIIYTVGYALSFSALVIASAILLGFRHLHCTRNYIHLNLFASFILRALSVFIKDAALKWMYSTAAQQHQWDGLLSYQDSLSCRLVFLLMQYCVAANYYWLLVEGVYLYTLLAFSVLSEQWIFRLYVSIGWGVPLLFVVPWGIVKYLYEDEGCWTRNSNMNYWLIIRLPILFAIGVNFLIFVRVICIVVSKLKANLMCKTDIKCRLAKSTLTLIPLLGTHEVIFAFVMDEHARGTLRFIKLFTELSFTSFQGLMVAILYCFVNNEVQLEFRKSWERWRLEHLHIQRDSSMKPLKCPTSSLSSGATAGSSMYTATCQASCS

B1: PC9#3 GLP-1 analogue heavy chain fusion (antibody, IgG1)
VH: HGEGTFTSDVSSYLEEQAAKEFIAWLVKGGGGGGGSGGGGSGGGGSAEVQLVESGGGLVQPGGSLRLSCAASGFTFNNYAMNWVRQAPGKGLDWVSTISGSGGTTNYADSVKGRFIISRDSSKHTLYLQMNSLRAEDTAVYYCAKDSNWGNFDLWGRGTLVTVSS
VL: not shown
notes: IgG1-TM; descriptive name; also called heavy chain peptide antibody fusion of PC9#3
B1: the “IC50 (read off the curve)” value in experiment [1] is approximately 90 pM.

B2: anti-B7-H1 antibody 2.7A4 (antibody, V domains shown)
VH: EVQLVESGGGLVKPGGSLRLSCAASGFTFSTYSMNWVRQAPGKGLEWVSSISSSGDYIYYADSVKGRFTISRDNAKNSLYLQMNSLRAEDTAVYYCARDLVTSMVAFDYWGQGTLVTVSS
VL: SYELTQPPSVSVSPGQTARITCSGDALPQKYVFWYQQKSGQAPVLVIYEDSKRPSGIPERFSGSSSGTMATLTISGAQVEDEADYYCYSTDRSGNHRVFGGGTKLTVL
For B2, the binding result in experiment [2] is “binds”.

B3: PC9#2_GLP-1_VL (antibody, IgG1)
VH: QVQLVQSGAEVKKPGASVKVSCKASGYTFTSYYMHWVRQAPGQGLEWMGEIHPSGGRTNYNEKFKSRVTMTRDTSTSTVYMELSSLRSEDTAVYYCARERPLYASDLWGQGTTVTVSS
VL: HGEGTFTSDVSSYLEEQAAKEFIAWLVKGGGGGGGSGGGGSGGGGSADIQMTQSPSSLSASVGDRVTITCKASQDVHTAVAWYQQKPGKAPKLLIYHASYRYTGVPSRFSGSGSGTDFTFTISSLQPEDIATYYCQQRYSLWRTFGQGTKLEIK
notes: IgG1-TM; also called light chain peptide antibody fusion of PC9#2
Take B3: the “x change of Kd, PC9#2_GLP1 against PC9#2” value in experiment [3] was determined as 2.7 fold. In addition, in the experiment with human GLP-1 receptor, the “x change (against GLP1-Fc)” value is 2.4 fold. The “IC50 (read off the curve)” value in experiment [4] is approximately 400 pM.

B4: HS9_DSB7_V19A (antibody)
VH: B3 VH with H52S, R57S, N59S, E62Q, K65Q, S66G
VL: HGEGTFTSDLSKQMEEECARLFIEWLKNGGPSSGAPPPGCGGGGGSGGGGSGGGGSADIQMTQSPSSLSASVGDRVTITCQASQDVKTAVAWYQQKPGKAPKLLIYSASYRYTGVPSRFSGSGSGTDFTFTISSLQPEDIATYYCQQRYSLWRTFGQGTKLEIK
As to B4, the binding result in experiment [5] is recorded as “no binding (tested: 25 µg/mL)”.

B5: PC9#6_DSB7_V19A (antibody, IgG1)
VH: QVQLVQSGAEVKKPGSSVKVSCKASGGTFNSHAISWVRQAPGQGLEWMGGINPILGIANYAQKFQGRVTITADESTSTAYMELSSLRSEDTAVYYCARHYEIQIGRYGMNVYYLMYRFASWGQGTLVTVSS
VL: HGEGTFTSDLSKQMEEECARLFIEWLKNGGPSSGAPPPGCGGGGGSGGGGSGGGGSADIQMTQSPSSLSASVGDRVTITCRASQGIRSALNWYQQKPGKAPKLLIYNGSTLQSGVPSRFSGSGSGTDFTLTISSLQPEDFAVYYCQQFDGDPTFGQGTKVEIK
notes: IgG1-TM
With B5, the binding result in experiment [6] is listed as “no binding (tested: 100 ug/mL)”.

B6: PC9#2 GLP-1 analogue heavy chain fusion (antibody, IgG1)
VH: HGEGTFTSDVSSYLEEQAAKEFIAWLVKGGGGGGGSGGGGSGGGGSAQVQLVQSGAEVKKPGASVKVSCKASGYTFTSYYMHWVRQAPGQGLEWMGEIHPSGGRTNYNEKFKSRVTMTRDTSTSTVYMELSSLRSEDTAVYYCARERPLYASDLWGQGTTVTVSS
VL: DIQMTQSPSSLSASVGDRVTITCKASQDVHTAVAWYQQKPGKAPKLLIYHASYRYTGVPSRFSGSGSGTDFTFTISSLQPEDIATYYCQQRYSLWRTFGQGTKLEIK
notes: IgG1-TM; descriptive name; also called heavy chain peptide antibody fusion of PC9#2
B6: the “IC50 (read off the curve)” value in experiment [7] was approximately 700 pM.
